Laboratory results published in publication PMC7331920.

Assays:
[1] = molecular target: JADE1 PHD finger 1; test: fluorescence polarisation
[2] = molecular target: PHF14 PHD finger 1 (GST-fusion protein); test: fluorescence polarisation

Row | Substance | Kd [1] | Kd [2]
1 | H3K4me0 peptide (unmodified / wild-type H3 tail peptide) | 32 µM | 7 µM
2 | H3K4me3 peptide | > 100 µM | –
3 | H3K4norleucine peptide | > 100 µM | –
